Experimental data from patent publication US20260176373A1 (BRIGHT BIOLOGICS, published 2026).

Columns and labels:
[1] = molecular target: T1, human TROP2 (Trophoblast cell-surface antigen 2) (human, UniProt P09758 27-323); experiment: flow cytometry whole cell binding, h-TROP2 stably transfected CHO cells
T1 construct: whole, on cells; also called TACSTD2; h-TROP2
T1 sequence (looked up): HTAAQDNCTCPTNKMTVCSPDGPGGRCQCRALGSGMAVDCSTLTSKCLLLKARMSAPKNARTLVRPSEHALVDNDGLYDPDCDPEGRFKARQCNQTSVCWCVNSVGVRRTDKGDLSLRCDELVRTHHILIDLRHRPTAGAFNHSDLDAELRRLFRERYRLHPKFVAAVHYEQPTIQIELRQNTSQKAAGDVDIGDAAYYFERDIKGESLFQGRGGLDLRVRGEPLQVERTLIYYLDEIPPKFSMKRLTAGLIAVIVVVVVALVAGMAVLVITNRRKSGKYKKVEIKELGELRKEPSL
Procedure: Binding of bivalent anti-TROP2 VHH-Fc clones to human TROP2 in human TROP2 stably transfected CHO cells (CHO-h-TROP2 stable cells) were determined by flow cytometry whole cell binding (WCB) assays. Briefly, antibodies were incubated at different concentrations with CHO-h-TROP2 stable cells (0.2×10⁶/ml) in 96-well plates (100 μl/well) in FACS buffer for 30 min. After washing, Alexa Fluor 488 conjugated anti-human IgG Fc secondary antibody was added, and incubated for 30 min. After washing, MFI was measured using CytoFlex by gating live cell population with FITC channel. EC50 of binding was calculated using GraphPad Prism7.0.

[2] = molecular target: T2, mouse TROP2 (mouse, UniProt Q8BGV3 25-317); experiment: flow cytometry whole cell binding, m-TROP2 stably transfected 293T cells
T2 construct: whole, on cells; also called m-TROP2
T2 sequence (looked up): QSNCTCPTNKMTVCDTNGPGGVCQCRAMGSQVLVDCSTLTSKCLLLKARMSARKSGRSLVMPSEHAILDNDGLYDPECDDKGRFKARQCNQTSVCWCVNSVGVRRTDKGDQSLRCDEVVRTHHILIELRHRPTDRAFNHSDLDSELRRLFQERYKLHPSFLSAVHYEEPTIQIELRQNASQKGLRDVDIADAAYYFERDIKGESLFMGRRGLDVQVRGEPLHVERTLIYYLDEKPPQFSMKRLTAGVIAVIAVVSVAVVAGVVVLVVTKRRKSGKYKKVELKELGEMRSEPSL

[3] = molecular target: T3, human TROP2 (Trophoblast cell-surface antigen 2) (human, UniProt P09758 27-323); experiment: flow cytometry whole cell binding, SKBR3
T3 chain: T1 sequence (looked up)

[4] = molecular target: T4, human HER2-Domain II-his protein (human, UniProt P04626 196-319); experiment: ELISA, plate coated with human HER2-Domain II-his
T4 construct: also called HER2 domain II fragment (Ser196-Asn319); not shown: his tag
Procedure: (§1) X axis is values of antibody concentration in nanomolar. Y axis is values of OD at 450 nm.
(§2) Binding of anti-HER2 VHH-Fc clones to different domains of human HER2 ECD was determined by ELISA binding assays using his-tagged HER2 domain fragments. Human HER2 domain IV fragment (Pro489-Cys630) was purchased from Sinobiological, domain II+III+IV fragment (Ser196-Cys630) & domain II fragment (Ser196-Asn319) were made.

[5] = molecular target: T5, human HER2 (human epidermal growth factor receptor 2) (human, UniProt P04626 23-1255); experiment: flow cytometry whole cell binding, CHO-h-HER2 stable cells
T5 construct: whole, on cells; also called ERBB2; h-HER2
Procedure: (§3) Binding of bivalent anti-HER2 VHH-Fc clones to human HER2 stably transfected CHO cells (CHO-h-HER2 stable cells) was determined by flow cytometry whole cell binding (WCB) assays. Briefly, antibodies were incubated at different concentrations with CHO-h-HER2 stable cells (0.2×10⁶/ml) in 100 μl/well in 96-well plates in FACS buffer (PBS with 1.0% FBS) for 30 min. After washing, Alexa Fluor 488 conjugated anti-human IgG Fc secondary antibody (Alexa Fluor® 488 AffiniPure Goat Anti-Human IgG, Fcγ fragment specific, Jackson labs, 1:750 dilution) was added, and incubated for 30 min. After washing, Median Fluorescence Intensity (MFI) was measured using CytoFlex (Beckman Coulter) by gating live cell population with FITC channel. Whole cell binding of VHH-Fc clones to endogenously expressed HER2 in human cancer cells was also determined using N87 (Stomach cancer cell line) and SKBR3 (Breast cancer cell line) cells, both of which are cancer cells with high HER2 expressions.

[6] = molecular target: T5, human HER2 (human epidermal growth …); experiment: cell-based or functional assay
[7] = molecular target: T5, human HER2 (human epidermal growth …); experiment: cell-based or functional assay; remark: listed apart in the source
[8] = molecular target: T5, human HER2 (human epidermal growth …); experiment: flow cytometry whole cell binding, N87 cells (endogenous HER2)
Procedure: as §3

[9] = molecular target: T6, human HER2-Domain IV-his protein (human, UniProt P04626 489-630); experiment: ELISA, plate coated with human HER2-Domain IV-his
T6 construct: also called HER2 domain IV fragment (Pro489-Cys630); not shown: his tag
Procedure: as §1, §2

[10] = molecular target: T5, human HER2 (human epidermal growth …); experiment: cell-based or functional assay; remark: listed apart in the source
[11] = molecular target: T5, human HER2 (human epidermal growth …); experiment: flow cytometry whole cell binding, HCC202 cells
[12] = molecular target: T5, human HER2 (human epidermal growth …); experiment: flow cytometry whole cell binding, CHO-h-HER2 stable cells; remark: listed apart in the source
[13] = molecular target: T5, human HER2 (human epidermal growth …); experiment: flow cytometry whole cell binding, SKBR3 cells
[14] = molecular target: T1, human TROP2 (Trophoblast cell-surface …); experiment: flow cytometry whole cell binding, NCI-H441 cells
[15] = molecular target: T1, human TROP2 (Trophoblast cell-surface …); experiment: cell-based or functional assay
[16] = molecular target: T1, human TROP2 (Trophoblast cell-surface …); experiment: flow cytometry whole cell binding, HCC202 cells
[17] = molecular target: T1, human TROP2 (Trophoblast cell-surface …); experiment: flow cytometry whole cell binding, SKBR3 cells

B1: anti-TROP2 VHH-Fc clone Alpaca 3H9 (antibody, human IgG1, V domains shown)
VH: LVQLVESGGGLVQAGGSQRLSCAVSGRAFAYYAMGWFRQAPGKEREFVAAIAGSGDSTYYADSVKGRFTISRDYAKNTNYLQMNSLKPEDTAVYYCAAAGGTFYSGTAVATRSSQYDYWGQGTQVTVSS
notes: domain: hinge region and constant domains (CH2 and CH3); bivalent VHH-Fc, human IgG1 Fc; also called 3H9-Fc
EC50 [1]: 1.46 nM | EC50 [2]: 760 nM | EC50 [3]: 1.76 nM

B2: anti-HER2 VHH-Fc clone 11D5 (bivalent VHH-Fc of Example 2) (antibody, V domains shown)
VH: QVQLVESGGGVVQPGRSLRLSCAASGSTFSSLAMHWVRQAPGKERELVAAISYSGGYTYYADSVKGRFTISRDNSKNTLYLQMNSLRAEDTAVYYCAASSIFIGAYDYWGQGTLVTVSS
notes: not shown: human IgG1 Fc region: hinge region and constant domains CH2 and CH3
binding result [4]: no binding | EC50 [5]: 2.09 nM | IC50 (nM) in AU-565 cells, killing in the presence of PBMCs [6]: 0.38 nM | IC50 (nM) in SKBR3 cells, killing in the presence of PBMCs [6]: 0.29 nM | IC50 (nM) in AU-565 cells, anti-proliferation [7]: 0.84 nM | EC50 [8]: 3.14 nM | binding result [9]: no binding

B3: 11D5_Fc (antibody, V domains shown)
VH: B2 VH
notes: monospecific bivalent VHH-Fc with C220S mutation in the hinge region; also called monospecific anti-HER2 (11D5)
IC50, nM, Killing of HCC202 cells by 2nd Ab-MMAE [10]: 0.18 nM | IC50, nM, Killing of SKBR3 cells by 2nd Ab-MMAE [10]: 0.134 nM | EC50 [11]: 3.25 nM | EC50 [12]: 0.684 nM | EC50 [13]: 2.59 nM

B4: 1H11-hv8_Fc (antibody, V domains shown)
VH: EVQLVESGGGLVQPGGSLRLSCAASGGTFSRYIMGWFRQAPGKEREFVSTISGSGGSTYYADSVKGRFTISRDNSKNTLYLQMNSLRAEDTAVYYCASTFYSTTYVAQRDARDYAYWGQGTQVTVSS
notes: monospecific bivalent VHH-Fc with C220S mutation in the hinge region; also called monospecific anti-TROP2 (1H11-hv8)
EC50 [14]: 1.6 nM | IC50, nM, Killing of HCC202 cells by 2nd Ab-MMAE [15]: 0.2 nM | IC50, nM, Killing of NCI-H441 cells by 2nd Ab-MMAE [15]: 0.15 nM | IC50, nM, Killing of SKBR3 cells by 2nd Ab-MMAE [15]: 0.48 nM | EC50 [16]: 3.5 nM | EC50 [17]: 141 nM
